{
  "source": "paper PMC7590123",
  "key": {"[1]": {"tested_on": "T1, PhaD-His6 (Pseudomonas putida KT2440), ORF:4b0e7042", "T1 sequence": "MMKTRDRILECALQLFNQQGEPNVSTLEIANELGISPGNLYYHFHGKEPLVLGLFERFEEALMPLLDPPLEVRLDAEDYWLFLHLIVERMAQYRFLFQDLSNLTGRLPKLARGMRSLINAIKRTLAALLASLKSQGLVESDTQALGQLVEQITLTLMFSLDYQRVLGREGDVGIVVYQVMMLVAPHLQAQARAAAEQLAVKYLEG", "assay": "EMSA"}, "[2]": {"molecular_target": "T18‐PhaC1 (bacterial two‐hybrid fusion, pUT18C‐phaC1) (P. putida)", "assay": "two-hybrid"}},
  "data": [
    {"substance": "CCGTACACTTCCGAGGATGGGCGCACCTCAGGCAGCATCTGCCGCGGGATGCCCAGGATTTCCAGCAGCTTGTCGTCCCACTGCAGGCTGTGGATGTTGAACATCAGCGTGCGCGAGGCATTGGTGTAGTCGGTGACGTGAACCTTCCCACCCGTAAGCTTCCAGATCAGCCAGGTG (double strand) [glpK coding fragment]", "values": [
      {"measurement": "binding", "setting": "[1]", "result": "no binding"}
    ]},
    {"substance": "CGCGGATCCATGCTGTGTACCTCATGCTCATGAGTGGTGGAAAACCGCCCATGGAGGCTGGGCTTGAGCATTAAGGTAGGGAAGAAAATTAGAAACCTCACCCTAAGGTCGTCGTTGTCGCATCTATATACCGCAAGCCCCGTTGACCACAGCGCTAGCGTCGCAGGCTTCACCTCACGGACATCGACGCCATGACTGCTGTAGCAAACCCACCCAGGCTGACGTTCAAGCAAAGCGTGGCAGGAATTCCGG (double strand) [PI promoter probe (phaI upstream, 230 bp)]", "values": [
      {"measurement": "binding", "setting": "[1]", "result": "binds"}
    ]},
    {"substance": "T18‐PhaC1 (bacterial two‐hybrid fusion, pUT18C‐phaC1) (natural protein)", "values": [
      {"measurement": "β‐galactosidase activity", "setting": "[2]", "result": 1730, "unit": "U/mg CDW"}
    ]}
  ]
}
